Measurements reported in patent publication US20260256741A1, “ANTICANCER MALEIMIDE DERIVATIVES FOR USE WITH IMMUNE CHECKPOINT BLOCKADE” (BROWN UNIVERSITY, priority 2022, published 2026).

Key:
[1] = system: HCT-116 CRC cells; experiment: Western blot analysis of HCT-116 CRC cells; assay type: cell-based, human; conditions: 250 ng/mL IFN-γ
Method: (§1) Recombinant Human TNF-α (Cat #300-01A, PeproTech, Rocky Hill, NJ, USA) and Recombinant Human IFN-γ (Cat #300-02, Peprotech, Rocky Hill, NJ, USA) were purchased for use in western blot analysis while rhTRAIL was generated in-house. Kim et al., J Biol Chem., 279(38):40044-52 (2004).
(§2) Cells were plated in a 6-well plate and incubated overnight before the spent media was replaced with drugged media. Drug treatment lasted for indicated durations. Protein was extracted using radioimmunoprecipitation (RIPA) assay buffer (Cat #R0278, Sigma-Aldrich, St. Louis, MO) containing cOmplete™, Mini, EDTA-free Protease Inhibitor Cocktail (Cat #4693159001, Roche, Basel, Switzerland) from sub-confluent cells. Denaturing sample buffer was added, samples were boiled at 95 degrees for 10 minutes, and an equal amount of protein lysate was electrophoresed through NuPAGE™ 4 to 12%, Bis-Tris, 1.5 mm, Mini Protein Gels (Invitrogen, Waltham, MA) then transferred to PVDF membranes. The PVDF membrane was blocked with 5% non-fat milk (Sigma-Aldrich, St. Louis, MO) in 1×TTBS. Primary antibodies were incubated with the transferred PVDF membrane in blocking buffer at 4° C. overnight. Secondary antibodies used included Goat anti-Rabbit IgG (H+L) Secondary Antibody, HRP (Cat #31460, Invitrogen, Waltham, MA), and Goat anti-Mouse IgG (H+L) Secondary Antibody, HRP (Cat #31430, Invitrogen, Waltham, MA). Signal was detected using Pierce™ ECL Western Blotting Substrate (Cat #32106, Thermo Scientific, Waltham, MA, USA) and a Syngene Imaging System (RRID: SCR_015770).

[2] = system: HT-29 CRC cells; experiment: Western blot analysis of HT-29 CRC cells; assay type: cell-based, human; conditions: 250 ng/mL IFN-γ
Method: as §1, §2

B1: IFN-γ: Recombinant Human IFN-γ (Peprotech) used to treat tumor cells for western blot (protein, UniProt P01579 24-161, looked up)
Interferon gamma: QDPYVKEAENLKKYFNAGHSDVADNGTLFLGILKNWKEESDRKIMQSQIVSFYFKLFKNFKDDQSIQKSVETIKEDMNVKFFNSNKKKRDDFEKLTNYSVTDLNVQRKAIHELIQVMAELSPAAKTGKRKRSQMLFRG
In the case of B1, the “gasdermin B expression” value [1] is reported as “increase in gasdermin B expression” and the “gasdermin B expression” value [2] is reported as “increase in gasdermin B expression”.
